Source: patent US20110034670

Tested on: 4-(sulfamoyl)benzoyladenosine-pYEEI conjugate (9)

## Src tyrosine kinase
  enhancement of catalytic activity and phosphorylation: enhanced the catalytic activity and phosphorylation by at least 40%
